Experimental data taken from IntAct's records for PubMed 38225382.

B1: Syntaxin-1B (Homo sapiens), P61266 (parent)
chain: MKDRTQELRSAKDSDDEEEVVHVDRDHFMDEFFEQVEEIRGCIEKLSEDVEQVKKQHSAILAAPNPDEKTKQELEDLTADIKKTANKVRSKLKAIEQSIEQEEGLNRSSADLRIRKTQHSTLSRKFVEVMTEYNATQSKYRDRCKDRIQRQLEITGRTTTNEELEDMLESGKLAIFTDDIKMDSQMTKQALNEIETRHNEIIKLETSIRELHDMFVDMAMLVESQGEMIDRIEYNVEHSVDYVERAVSDTKKAVKYQSKARRKKIMIIICCVVLGVVLASSIGGTLGL
partner: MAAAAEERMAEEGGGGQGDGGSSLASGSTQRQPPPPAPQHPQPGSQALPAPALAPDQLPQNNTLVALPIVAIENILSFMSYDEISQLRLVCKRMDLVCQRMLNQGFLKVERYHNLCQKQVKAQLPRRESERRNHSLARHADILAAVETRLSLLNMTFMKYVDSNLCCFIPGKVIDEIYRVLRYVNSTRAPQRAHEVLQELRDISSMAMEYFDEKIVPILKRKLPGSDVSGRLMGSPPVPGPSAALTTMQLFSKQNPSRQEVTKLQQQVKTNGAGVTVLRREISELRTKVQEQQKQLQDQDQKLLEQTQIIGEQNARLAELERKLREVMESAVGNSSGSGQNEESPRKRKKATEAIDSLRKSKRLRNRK

Variants of: B1
Settings: with fbx28_human FBXO28, Q9NVF7

Variant	effect of a mutation on the interaction
V216E	decreasing interaction strength
N134E	with no effect
G226R	decreasing interaction strength
S239P	decreasing interaction strength
